Reference: the DeepSol protein solubility set

Assay: soluble on expression in E. coli; label from the status in PepcDB or PDB records

Sequence | soluble on expression in E. coli
MNARKAPEFPAWPQYDDAERNGLVRALEQGQWWRMGGDEVNSFEREFAAHHGAAHALAVTNGTHALELALQVMGVGPGTEVIVPAFTFISSSQAAQRLGAVTVPVDVDAATYNLDPEAVAAAVTPRTKVIMPVHMAGLMADMDALAKISADTGVPLLQDAAHAHGARWQGKRVGELDSIATFSFQNGKLMTAGEGGAVVFPDGETEKYETAFLRHSCGRPRDDRRYFHKIAGSNMRLNEFSASVLRAQLARLDEQIAVRDERWTLLSRLLGAIDGVVPQGGDVRADRNSHYMAMFRIPGLTEERRNALVDRLVEAGLPAFAAFRAIYRTDAFWELGAPDESVDAIARRCPNTDAISSDCVWLHHRVLLAGEPELHATAEIIADAVARA | soluble
MVSSAVKCGICRGVDGKYKCPKCGVRYCSLKCYKDAAKHVHKESEQPRAGTEANVEVVNNDKIINSSLAMNKTLKTKAFDDIYQNSAELQELLKYNTVKFHLAKVYRILSSTVNDGSSGKMNSDLQKELAVNYLNTLRYGGIHYNEAIEEFCQILLDKLNAVKK | soluble
MSDEAIHDIFVIGGGINGCGIARDAVGRGYSVALAEMNDFASGTSSAATKLIHGGLRYLEHYEFRLVREALMEREVLWAMAPHIIWPMRFVLPFQKGGVRPAWLVRLGLFLYDHLGGRKLLPATRSLDLRRDPAGKPLKPIFARAFEYSDGWVDDARLVVLNARDAADRGAVILNRTQVVSARREGAFWRVETKNAAGESKTYRARMLVNAAGPWVDKVLAATFGKNNVHNVRLVQGSHIIVRKKFADPRAYFFQNPDGRIIFAIPYEQDFTLIGTTDRDYTADPRAVKISDEEISYLCNAASEYFAEPVKPADIVWTYSGVRPLFDDGASKAQEATRDYVLKTEGAEGEAPLLNIFGGKLTTYRRLAEHALEKIGDALGEKGTPWTAGSHLPGGNFGAEAYAEEVKALRSRYPFLDRRHAERLVRCYGTDAVAIIGAAADTTALGRHFGGTLYEAEVRWLMAREWALTAEDILWRRTKQGLFLTPEEVLGLTDYIDDIAGGRLKAILEHHHHHH | soluble
AHHHHHHGSKAFISIDLEGLPYIVSREHLFVKGALYNEARKIATKIAKIAAEKLHEEGFEEIVIADSHGPMVNIIPEEMPSYVSIVRGFPRPLSMVAFGKGSDIAIFLGYHAKAGTSFATFDHTYSGATIDKIIISGIEVSEFLLNSMVLGEWGVPIGLVAGDEALKEDLKYVPWAEFIPLKKASGRYSALSPSMEAIEKELKAGIKRAVEKLNNKELRAFKIETPVDVEIRFLNSAYAEVADLLPGVERIDGKTIRFTANTVEDAYKIMEVLTLAAAGVSYIVSR | not soluble
MADHNDRGRQGEEIALKHLRQQGYQIEALNWQSGRRELDIVASTSRELVVVEVKTRTEGFLLAPEEAVDARKRRLISESAHHYVRMYAIDLPVRFDVISVVLSADGSCKRIEHRENAFPLLLKRSQRSTPRRRRL | not soluble
MSVDLKRGETLPIHVNMTFPSLPCDVLSVDAIDMSGKHEVDLDTNIWKLRLNSHGHIIGTEYISDLVEKGHEHDGKEEHKNETETEALNILGFDQAAETMIKKVKQALADGEGCRVYGVLDVQRVAGNFHISVHGLNIYVAQMIFGGSKNVNVSHMIHDLSFGPKYPGIHNPLDDTNRILHDTSGTFKYYIKIVPTEYRYLSKDVLSTNQYSVTEYFTPMTEFDRTWPAVYFLYDLSPITVTIKEERRSFLHLITRLCAVLGGTFALTGMLDRWMFRFIESFNKKPSTRA | soluble
MSSPKKNFKKPQPKTENQKQALNEERIAELKKSRILGKNRPFKKMIYVDTKAQRKQKHENVAFLKTLQENKESDVPKKRRGRKPKHAPLKEKNNLKLFDILEGSLKSHTENDDTNKVISLLVEVWEKKNKKKDNNSLSNKDIVNVLSKFELPDDEIIFVLDELR | soluble
MAGGPPKALPSTGPQSLRDMPHPLAGSSSEEAVGGDSTPSPDLLMARSFGDKDLILPNGGTPAGTASPASSSSLLNRLQLDDDIDGEARDLFVTVDDPKKHVCTMETYITYRITTKSTRVEFDLPEYSVRRRYQDFDWLRNKLEESQPTHLIPPLPEKFVVKGVVDRFSEEFVETRRKALDKFLKRITDHPVLSFNEHFNVFLTAKDLNAYKKQGIALLSRVGESVKHVTGGYKLRSRPLEFAAISDYLDTFALKLGTIDRIAQRIIKEEIEYLVELREYGPVYSTWSALEGELAEPLEGVSACIGNCSTALEELTDDITEEFLPVLREYVLYSDSMKGVLKKRDQVQAEYEAKLEAVALRKEERPKVPADVEKCQDRMECFNADLKADMERWQSNKRHDFRQLLVGLADKNIQYYEKCLMAWESIIPLLQEKQETK | soluble
